Assay results from US11161912B2, “Heparanase-neutralizing monoclonal antibodies” (Technion Research & Development Foundation Limited, priority 2015, dated 2021).

Columns and labels:
CAG myeloma cells = assay: CAG-luciferase myeloma, tail vein inoculation, tumor burden by IVIS imaging; format: in vivo, human; details: mAb 600 μg/mouse every other day
Procedure: Tumorigenicity. Luciferase-labelled CAG myeloma (5×10^6) or Raji lymphoma (1×10^6) cells were injected into the tail vein of NOD/SCID mice (n=5). Mice were treated with PG545 (20 mg/kg, once weekly), mAb 9E8 (600 μg/mouse) every other day starting one day following cell inoculation and tumor growth was examined by IVIS imaging. At termination, mice were sacrificed, the backbones were excised, fixed in formalin and following de-calcification with 10% EDTA solution were embedded in paraffin and subjected to histological and immunohistochemical analyses essentially as described (Weissmann et al, 2016, Proc Natl Acad Sci USA 113:704-709). […]
IVIS imaging. […] Light emitted from the bioluminescent cells was detected by the IVIS camera system with images quantified for tumor burden using a log-scale color range set at 5×10^4 to 1×10^7 and measurement of total photon counts per second (PPS) using Living Image software (Xenogen) (Weissmann et al, 2016, Proc Natl Acad Sci USA 113:704-709).
FIG. 6A. […] Tumor growth was evaluated by IVIS imaging (left panels). Quantification of luciferase signals is shown graphically in the right panel. […] Bone marrow was harvested from C57Bl/6 mice, cells were collected by centrifugation and heparanase activity was determined as described under ‘Materials and Methods’ (left panel). […]

Mouse B16 melanoma cells = assay: B16 melanoma experimental lung metastasis; format: in vivo; details: C57Bl/6 mice, given with the cells: Ab #1453 250 μg, mAb 9E8 500 μg, SST0001 400 μg; lungs after 18 days
Procedure: Experimental metastasis. B16 BL6 mouse melanoma (2×10^5) or LM2-4 human breast cancer cells (2×10^6) were injected into the tail vein of C57/BL mice or SCID/Beige mice (respectively) together with the indicated compound, essentially as described (Hostettler N, et al. 2007, FASEB J 21(13):3562-3572). Lungs were harvested 18 days thereafter and metastases occurrence was determined following fixation by gross inspection and histology (Weissmann et al, 2016, Proc Natl Acad Sci USA 113:704-709).
FIG. 5A. Cell invasion. Cal-27 tongue carcinoma (left panels) and U87 glioma cells (right panels) (2×10^5) were plated onto Matrigel-coated filters in the presence of mouse IgM/IgG (upper panels), mAb 9E8 (2 μg; second left and middle panels). Invading cells adhering to the lower side of the membrane were visualized after 6 h. The number of invading cells per high power field is shown graphically at the lower panels. FIG. 5B, FIG. 5C. Tumor metastasis. FIG. 5B Mouse B16 melanoma cells (2×10^5) were inoculated into the tail vein of C57Bl/6 mice (n=7) together with rabbit IgG (300 μg; Con), Ab #1453 (250 μg), mAb 9E8 (500 μg) or SST0001 (400 μg). Lungs were harvested after 18 days, photographed (lower panel) and the number of metastatic lesions was counted (upper panel; p=0.001, 0.0006, 0.0001 for Con vs. Ab 1453, Con vs. mAb 9E8 and Con vs. SST0001, respectively). […]

B1: mAb 9E8: monoclonal IgM raised against KKDC peptide (Lys158-Asn171) of heparanase; VH SEQ ID NO: 7, VL SEQ ID NO: 8 (antibody)
VH: EVKLLESGGGLVQPGGSLKLSCAASGFDFSRYWMSWVRQAPGKGLEWIGEINPDSSTINYTPSLKDKFIISRDNAKNTLYLQMSKVRSEDTALYYCARRGYEGNYAMDYWGQGTSVTVSSESQSFPNVFPLVSCESPLSDKNLVAMGCLAR
VL: DIVMTQAAPSVPVTPGESVSISCRSSKSLLHSNGNTYLYWFLQRPGQSPQLLIYRMSNLASGVPDRFSGSGSGTAFTLRISRVEAEDVGVYYCMQHLEYPFTFGSGTKLEIKRADAAPTVSIFPPSSEQLTSGGASVVCFL
modifications: IgM constant regions
In the case of B1, the “decrease in tumor burden (luciferase signal)” value (CAG myeloma cells) is reported as 2-3 fold and the “experimental lung metastasis (number of metastatic lesions)” value (Mouse B16 melanoma cells) is reported as “inhibitory effect”.
